Reference: patent US20180117174A1 (GANYMED PHARMACEUTICALS, published 2018)

Experiments:
[1] = biological target: T1, human claudin 18 splice variant 2 (CLDN18.2) (human); experiment: flow cytometry on NCI-N87~CLDN18.2 cells, antibody up to 20 µg/ml
T1 construct: also called claudin 18 isotype 2
Description: (§1) 100 μl of the cell suspension per well (correspond to 2×10⁵ cells/well) were transferred to a round bottom 96-well microtiter plate. […] The cells were centrifuged for 1 min at 1500 rpm and the supernatant was discarded. […] After incubation, 100 μl FACS buffer were added to each sample, the cells were centrifuged for 1 min at 1500 rpm and the supernatant was discarded. The washing step with FACS buffer was repeated twice. Finally, the cells were resuspended in 100 μl FACS buffer and binding was determined using a BD FACS Array Bioanalyzer.

[2] = biological target: T1, human claudin 18 splice variant 2 …; experiment: flow cytometry on BxPC-3~CLDN18.2 cells, antibody up to 20 µg/ml
Description: as §1

[3] = biological target: T1, human claudin 18 splice variant 2 …; experiment: flow cytometry (Table 6); APC-conjugated secondary antibody; binding assay 1
Description: as §1
(§2) Antibodies marked with the same number (1 or 2) were tested in the same binding assay.

[4] = biological target: T1, human claudin 18 splice variant 2 …; experiment: flow cytometry, HEK293 cells stably expressing CLDN18.2; APC-conjugated secondary antibody; binding assay 1
[5] = biological target: T1, human claudin 18 splice variant 2 …; experiment: flow cytometry on HEK293~CLDN18.2 cells, antibody up to 20 µg/ml
Description: Binding was analyzed by flow cytometry at antibody concentrations up to 20 μg/ml. Data points (n=2 replicates) are depicted as mean±SD.
as §1
The binding specificity was analyzed by flow cytometry using HEK293 transfectants engineered to overexpress human CLDN18.2 or the highly homologous protein human CLDN18.1.

[6] = biological target: T1, human claudin 18 splice variant 2 …; experiment: flow cytometry on BxPC-3~CLDN18.2 cells, second assay
[7] = biological target: T1, human claudin 18 splice variant 2 …; experiment: flow cytometry, HEK293 cells stably expressing CLDN18.2; APC-conjugated secondary antibody; binding assay 2
[8] = biological target: T1, human claudin 18 splice variant 2 …; experiment: flow cytometry on NUGC-4 10cF7-5 sort 3a cells (endogenous CLDN18.2), second assay
[9] = biological target: T1, human claudin 18 splice variant 2 …; experiment: cell-based or functional assay
[10] = biological target: T1, human claudin 18 splice variant 2 …; experiment: flow cytometry (Table 6); ProteinL-FITC detection; binding assay 2
Description: as §1, §2

[11] = biological target: T1, human claudin 18 splice variant 2 …; experiment: flow cytometry, HEK293 cells stably expressing CLDN18.2; APC-conjugated secondary antibody; binding assay 3
Description: as §1

[12] = biological target: T1, human claudin 18 splice variant 2 …; experiment: flow cytometry, HEK293 cells stably expressing CLDN18.2; ProteinL-FITC detection; binding assay 4
[13] = biological target: T1, human claudin 18 splice variant 2 …; experiment: cell-based or functional assay; remark: listed apart in the source
[14] = biological target: T1, human claudin 18 splice variant 2 …; experiment: cell-based or functional assay; remark: listed apart in the source
[15] = biological target: T1, human claudin 18 splice variant 2 …; experiment: flow cytometry on NUGC-4 10cE8 cells (endogenous CLDN18.2), second assay
[16] = biological target: T1, human claudin 18 splice variant 2 …; experiment: flow cytometry, HEK293 cells stably expressing CLDN18.2; ProteinL-FITC detection; binding assay 4; normalized to IMAB362
Description: as §1

[17] = biological target: T1, human claudin 18 splice variant 2 …; experiment: flow cytometry (Table 6); ProteinL-FITC detection
Description: as §1

[18] = biological target: T1, human claudin 18 splice variant 2 …; experiment: flow cytometry (Table 6); ProteinL-FITC detection; normalized to IMAB362
Description: as §1

[19] = biological target: T1, human claudin 18 splice variant 2 …; experiment: flow cytometry on NUGC-4 10cE8 cells (endogenous CLDN18.2), antibody up to 20 µg/ml
Description: as §1
Binding properties were tested at different antibody concentrations in a range of 0.1 to 20 μg/ml (FIG. 4, Table 8).

[20] = biological target: T1, human claudin 18 splice variant 2 …; experiment: flow cytometry on NUGC-4 10cF7-5 sort 3a cells (endogenous CLDN18.2), antibody up to 20 µg/ml
Description: as §1

[21] = biological target: T1, human claudin 18 splice variant 2 …; experiment: cell-based or functional assay; remark: listed apart in the source
[22] = biological target: T1, human claudin 18 splice variant 2 …; experiment: flow cytometry, HEK293 cells stably expressing CLDN18.2; APC-conjugated secondary antibody; binding assay 3; normalized to IMAB362
Description: as §1

[23] = biological target: T1, human claudin 18 splice variant 2 …; experiment: flow cytometry (Table 6); ProteinL-FITC detection; binding assay 2; normalized to IMAB362

Row | Binder | EC50 [1] [µg/mL] | EC50 [2] [µg/mL] | EC50 [5] [µg/mL] | EC50 [6] [µg/mL] | EC50 [8] [µg/mL] | CDC EC50 [ng/ml], KATO-III FGF-BP#12 adM p3151#25 cells [9] [ng/mL] | CDC EC50 [ng/ml], NUGC-4 10cF7_5 sort3a p3151#10 cells [9] [ng/mL] | EC50 [10] [µg/mL] | EC50 [11] [µg/mL] | Max. binding [MFI] [11] [MFI] | EC50 [12] [µg/mL] | Max. binding [MFI] [12] [MFI] | Cell viability EC50 [ng/ml], Fab-ZAP endocytosis assay on HEK293~CLDN18.2 cells [13] [ng/mL] | ADCC EC50 [ng/ml], NUGC-4 10cF7_5 sort3a p3151#10 cells, PBMC of Donor 1 [14] [ng/mL] | ADCC EC50 [ng/ml], NUGC-4 10cF7_5 sort3a p3151#10 cells, PBMC of Donor 2 [14] [ng/mL] | EC50 [15] [µg/mL] | EC50 normalized [%] [16] [%] | EC50 [17] [µg/mL] | Cell viability EC50 [%] normalized to IMAB362, Fab-ZAP endocytosis assay [13] [%] | Max. viability reduction normalized [%], Fab-ZAP endocytosis assay [13] [%] | also measured
1 | IMAB362 (antibody, V domains shown, Chimeric human IgG1 kappa; CDR1 at 45-52); also called chim mAb362; chim mAB362) VH: QVQLQQPGAELVRPGASVKLSCKASGYTFTSYWINWVKQRPGQGLEWIGNIYPSDSYTNYNQKFKDKATLTVDKSSSTAYMQLSSPTSEDSAVYYCTRSWRGNSFDYWGQGTTLTVSS VL: DIVMTQSPSSLTVTAGEKVTMSCKSSQSLLNSGNQKNYLTWYQQKPGQPPKLLIYWASTRESGVPDRFTGSGSGTDFTLTISSVQAEDLAVYYCQNDYSYPFTFGSGTKLEIKR | 0.31 | 0.104 | 1.12 | 0.113 | 2.38 | 19300 | 28000 | 1.24 | 0.652 | 7950 | 1.24 | 5320 | 11 | 1230 | 142 | 3.67 |  |  |  |  | EC50 [3]: 0.584 µg/mL; Max. binding [MFI] [3]: 18500 MFI; EC50 [4]: 0.52 µg/mL; EC50 [7]: 0.584 µg/mL; Cell viability EC50 [ng/ml], Fab-ZAP endocytosis assay on HEK293~CLDN18.2 cells (second assay) [13]: 13 ng/mL
2 | mu mAB362 (mouse IgG2a) (antibody, V domains shown, Mouse IgG2a form of mu mAB362; also called mu muAB362 (IgG2a)) VH: QVQLQQPGAELVRPGASVKLSCKASGYTFTSYWINWVKQRPGQGLEWIGNIYPSDSYTNYNQKFKDKATLTVDKSSSTAYMQLSSPTSEDSAVYYCTRSWRGNSFDYWGQGTTLTVSS VL: DIVMTQSPSSLTVTAGEKVTMSCKSSQSLLNSGNQKNYLTWYQQKPGQPPKLLIYWASTRESGVPDRFTGSGSGTDFTLTISSVQAEDLAVYYCQNDYSYPFTFGSGTKLEIK |  |  |  |  |  |  |  |  |  |  | 0.654 | 4880 | ~30 |  |  |  | 53 | 4.29 | 231 | 66 | EC50 normalized [%] [18]: 345%
3 | IMAB362-DM4 (antibody, human IgG1, kappa, V domains shown, DM4 coupled via SPDB linker to primary amines (lysine side chains or N-terminus) of the antibody; drug to antibody ratio 3.2; sites not stated) VH: QVQLQQPGAELVRPGASVKLSCKASGYTFTSYWINWVKQRPGQGLEWIGNIYPSDSYTNYNQKFKDKATLTVDKSSSTAYMQLSSPTSEDSAVYYCTRSWRGNSFDYWGQGTTLTVSS VL: DIVMTQSPSSLTVTAGEKVTMSCKSSQSLLNSGNQKNYLTWYQQKPGQPPKLLIYWASTRESGVPDRFTGSGSGTDFTLTISSVQAEDLAVYYCQNDYSYPFTFGSGTKLEIKR | 0.274 | 0.507 | 1.47 | 0.425 | 3.91 | 6440 | 15800 |  |  |  |  |  |  | 1150 | 217 | 7.49 |  |  |  |  | EC50 [19]: 3.05 µg/mL; EC50 [20]: 2.6 µg/mL; EC50 [ng/ml] of reduction of cell viability (XTT, 72 h), BxPC-3~CLDN18.2 cells [21]: 43 ng/mL; EC50 [ng/ml] of reduction of cell viability (XTT, 72 h), BxPC-3~CLDN18.2 cells, second assay [21]: 54 ng/mL; EC50 [ng/ml] of reduction of cell viability (XTT, 72 h), NCI-N87~CLDN18.2 cells [21]: 75 ng/mL; EC50 [ng/ml] of reduction of cell viability (XTT, 72 h), NUGC-4 10cE8 cells [21]: 372 ng/mL; EC50 [ng/ml] of reduction of cell viability (XTT, 72 h), NUGC-4 10cF7-5 sort 3a cells [21]: 155 ng/mL
4 | mu mAB362 (mouse IgG1) (antibody, V domains shown, also called mu muAB362 (IgG1)) VH: QVQLQQPGAELVRPGASVKLSCKASGYTFTSYWINWVKQRPGQGLEWIGNIYPSDSYTNYNQKFKDKATLTVDKSSSTAYMQLSSPTSEDSAVYYCTRSWRGNSFDYWGQGTTLTVSS VL: DIVMTQSPSSLTVTAGEKVTMSCKSSQSLLNSGNQKNYLTWYQQKPGQPPKLLIYWASTRESGVPDRFTGSGSGTDFTLTISSVQAEDLAVYYCQNDYSYPFTFGSGTKLEIK |  |  |  |  |  |  |  |  | 2.24 | 8830 | 4.29 | 5910 | 2.2 |  |  |  | 345 | 0.654 | 17 | 66 | Max. binding normalized [%] [16]: 111%; EC50 normalized [%] [18]: 53%; EC50 normalized [%] [22]: 343%; Max. binding normalized [%] [22]: 111%
5 | chim mAB294 (antibody, V domains shown) VH: QIQLVQSGPELKKPGETVKISCKASGYTFTNYGMNWVKQAPGKGLKWMGWINTNTGEPTYAEEFKGRFAFSLETSASTAYLQINNLKNEDTATYFCARLGFGNAMDYWGQGTSVTVSS VL: DIVMTQSPSSLTVTAGEKVTMSCKSSQSLLNSGNQKNYLTWYQQKPGQPPKLLIYWASTRESGVPDRFTGSGSGTDFTLTISSVQAEDLAVYYCQNDYSYPLTFGAGTKLELKR |  |  |  |  |  |  |  | 5.7 |  |  |  |  | 10 |  |  |  |  |  | 91 | 86 | EC50 normalized [%] [23]: 459%
6 | IMAB362-vcMMAE (antibody, human IgG1, kappa, V domains shown, vcMMAE (Val-Cit linker) coupled to sulfhydryl groups set on lysine amines with 2-iminothiolane; drug to antibody ratio 4.5; sites not stated, also called MMAE-conjugated IMAB362) VH: QVQLQQPGAELVRPGASVKLSCKASGYTFTSYWINWVKQRPGQGLEWIGNIYPSDSYTNYNQKFKDKATLTVDKSSSTAYMQLSSPTSEDSAVYYCTRSWRGNSFDYWGQGTTLTVSS VL: DIVMTQSPSSLTVTAGEKVTMSCKSSQSLLNSGNQKNYLTWYQQKPGQPPKLLIYWASTRESGVPDRFTGSGSGTDFTLTISSVQAEDLAVYYCQNDYSYPFTFGSGTKLEIKR | 0.103 | 0.183 | 1.59 | 0.261 | 4.05 | 7240 | 28300 |  |  |  |  |  |  | 1080 | 275 | 5.46 |  |  |  |  | EC50 [19]: 2.83 µg/mL; EC50 [20]: 2.52 µg/mL; EC50 [ng/ml] of reduction of cell viability (XTT, 72 h), BxPC-3~CLDN18.2 cells [21]: 48 ng/mL; EC50 [ng/ml] of reduction of cell viability (XTT, 72 h), BxPC-3~CLDN18.2 cells, second assay [21]: 43 ng/mL; EC50 [ng/ml] of reduction of cell viability (XTT, 72 h), NCI-N87~CLDN18.2 cells, second assay [21]: 180 ng/mL; EC50 [ng/ml] of reduction of cell viability (XTT, 72 h), NUGC-4 10cE8 cells [21]: 631 ng/mL; EC50 [ng/ml] of reduction of cell viability (XTT, 72 h), NUGC-4 10cF7-5 sort 3a cells [21]: 338 ng/mL
